Reference: paper PMC6684372
Substitutions are numbered along the chain they refer to.

B1: 8-oxoG37(G:C) (dsDNA)
DNA 1: CCGAGTCATTCCTGCAGCGAGTCCATGGGAGTCAAAT
DNA 2: ATTTGACTCCCATGGACTCGCTGCAGGAATGACTCGG
modifications: 8-oxoG at position 21 of strand 1 (printed as Z), opposite C
B2: UD37 (dsDNA)
DNA 1: B1 DNA 1
DNA 2: B1 DNA 2
B3: 8-oxoG37(G:A) (dsDNA)
DNA 1: B1 DNA 1
DNA 2: B1 DNA 2 with C17A
modifications: 8-oxoG at position 21 of strand 1 (printed as Z), opposite A

How the values were obtained:
Experiment in all cases: EMSA
[1] = biological target: UV-DDB (DDB1-DDB2 heterodimer) (Homo sapiens) (UniProt Q16531+Q92466); settings: N at position 20 of strand 1 = tetrahydrofuran (abasic analog), opposite T
[2] = biological target: OGG1 (Homo sapiens, UniProt O15527 1-345)
[3] = biological target: UV-DDB (DDB1-DDB2 heterodimer) (Homo sapiens, UniProt Q16531;Q92466 1-1140;1-427)
Sequence of UV-DDB (DDB1-DDB2 heterodimer) (Q16531 whole entry, chain 1 of 2): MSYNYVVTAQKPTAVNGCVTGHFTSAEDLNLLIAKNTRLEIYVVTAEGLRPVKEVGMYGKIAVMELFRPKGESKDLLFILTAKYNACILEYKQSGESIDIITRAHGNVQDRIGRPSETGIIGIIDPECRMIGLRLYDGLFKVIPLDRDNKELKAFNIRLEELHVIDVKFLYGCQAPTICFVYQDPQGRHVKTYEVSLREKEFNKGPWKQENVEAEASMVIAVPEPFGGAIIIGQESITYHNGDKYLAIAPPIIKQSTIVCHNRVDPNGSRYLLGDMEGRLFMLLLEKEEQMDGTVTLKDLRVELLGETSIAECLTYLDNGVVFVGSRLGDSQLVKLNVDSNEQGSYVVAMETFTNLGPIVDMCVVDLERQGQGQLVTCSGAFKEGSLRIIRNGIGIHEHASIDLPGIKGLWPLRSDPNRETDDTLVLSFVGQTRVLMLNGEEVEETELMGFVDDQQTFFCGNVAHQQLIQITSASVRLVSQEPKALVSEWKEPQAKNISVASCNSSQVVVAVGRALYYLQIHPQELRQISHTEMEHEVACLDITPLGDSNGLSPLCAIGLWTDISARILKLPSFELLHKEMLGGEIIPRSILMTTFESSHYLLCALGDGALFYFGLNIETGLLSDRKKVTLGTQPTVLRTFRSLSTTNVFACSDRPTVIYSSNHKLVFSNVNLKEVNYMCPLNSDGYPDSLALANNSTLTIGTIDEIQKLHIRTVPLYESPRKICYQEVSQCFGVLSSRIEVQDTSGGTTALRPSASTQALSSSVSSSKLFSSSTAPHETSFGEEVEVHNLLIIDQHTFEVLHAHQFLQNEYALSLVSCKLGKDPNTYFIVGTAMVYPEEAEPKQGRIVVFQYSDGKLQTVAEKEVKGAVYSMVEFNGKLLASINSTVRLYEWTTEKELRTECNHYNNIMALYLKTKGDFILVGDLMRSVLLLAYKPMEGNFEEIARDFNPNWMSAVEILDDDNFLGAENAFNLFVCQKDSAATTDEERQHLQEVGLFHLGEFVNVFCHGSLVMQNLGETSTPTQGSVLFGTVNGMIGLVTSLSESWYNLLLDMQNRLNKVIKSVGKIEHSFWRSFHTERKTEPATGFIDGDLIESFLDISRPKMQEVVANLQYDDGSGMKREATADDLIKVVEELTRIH
Sequence of UV-DDB (DDB1-DDB2 heterodimer) (Q92466 whole entry, chain 2 of 2): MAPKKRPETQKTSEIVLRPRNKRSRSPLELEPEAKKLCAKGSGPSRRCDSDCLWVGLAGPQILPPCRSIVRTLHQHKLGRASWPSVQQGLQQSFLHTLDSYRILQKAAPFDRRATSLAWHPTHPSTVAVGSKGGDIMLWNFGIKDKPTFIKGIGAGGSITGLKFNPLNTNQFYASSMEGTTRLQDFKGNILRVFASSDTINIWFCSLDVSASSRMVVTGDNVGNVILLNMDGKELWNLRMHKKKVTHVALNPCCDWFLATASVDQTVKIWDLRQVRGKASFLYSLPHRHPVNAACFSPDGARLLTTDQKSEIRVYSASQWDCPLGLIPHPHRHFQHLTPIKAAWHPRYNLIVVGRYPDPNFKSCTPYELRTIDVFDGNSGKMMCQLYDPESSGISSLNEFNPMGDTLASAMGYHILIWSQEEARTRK

Sequence of OGG1 (O15527 whole entry): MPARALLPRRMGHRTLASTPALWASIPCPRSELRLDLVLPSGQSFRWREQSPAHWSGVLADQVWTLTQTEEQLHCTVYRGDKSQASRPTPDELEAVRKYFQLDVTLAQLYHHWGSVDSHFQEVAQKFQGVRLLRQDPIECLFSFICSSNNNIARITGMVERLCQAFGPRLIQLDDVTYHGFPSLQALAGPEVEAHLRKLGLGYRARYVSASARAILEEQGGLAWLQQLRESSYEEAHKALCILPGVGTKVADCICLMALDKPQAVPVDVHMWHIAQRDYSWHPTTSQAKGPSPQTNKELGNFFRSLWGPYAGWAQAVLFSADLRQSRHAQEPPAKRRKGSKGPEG
Sequence of UV-DDB (DDB1-DDB2 heterodimer) (Homo sapiens) (Q16531 whole entry, chain 1 of 2): as the sequence (Q16531 whole entry, chain 1 of 2) above
Sequence of UV-DDB (DDB1-DDB2 heterodimer) (Homo sapiens) (Q92466 whole entry, chain 2 of 2): as the sequence (Q92466 whole entry, chain 2 of 2) above

Molecule	Kd [1] [nM]	binding signal [2]	Kd [3] [nM]
CCGAGTCATTCCTGCAGCGNGTCCATGGGAGTCAAAT / ATTTGACTCCCATGGACTCGCTGCAGGAATGACTCGG [THF37]	3.9		
B1		~3 fold lower affinity than THF37	160 ± 12.4
B2			1110 ± 95.5
B3			164 ± 14.8
